System: MS2 coat protein
Experiment: apparent KD of MS2 coat protein; designed switch direction (-1 OFF switch, 1 ON switch): -1; higher = weaker reporter binding
Outline: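 For each design, the apparent KD is the median over clusters of curves fitted to normalised cluster fluorescence. Clusters held RNA switches with common flanks, transcribed on Illumina chips by stalled E. coli RNA polymerase. These were titrated with SNAP-549-labelled MS2 coat protein, doubling from 0.7 or 1.5 nM to 3 µM, without input, with 200 uM small-molecule ligand, or with an oligonucleotide input.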

[1] = input ligand: microRNA oligo, concentration not stated

| Sequence | apparent KD of MS2 coat protein (input ligand: FMN 200 uM) [nM] | apparent KD of MS2 coat protein [1] [nM] | apparent KD of MS2 coat protein (input ligand: none) [nM] | apparent KD of MS2 coat protein (Eterna round: R95, input ligand: microRNA oligo, concentration not stated) [nM] |
| --- | --- | --- | --- | --- |
| ACAUGAGGAUCACCCAUGUGACCACAAUGGCUGAUGUAGAAACAGGAUAUUCGUGAAUAUCUAACGAAGAAGGGUUAUGACUGG [Deportation 64 - Jieux - Exclusion NG 3] (Eterna round: R96, puzzle: Exclusion NG 3) | 62.9 | 61.7 | 72.1 | – |
| ACAUGAGGAUCACCCAUGUGCACGUAAUGGCUCAUGUAGAGAGAGGAUAUGCGUGACGAACGAGCGCAGAAGGCUCAAGACUGG [Deportation 15 - Jieux - Exclusion NG 3] (Eterna round: R96, puzzle: Exclusion NG 3) | 114 | 66.2 | 73.1 | – |
| ACAUGAGGAUCACCCAUGUGCACGUAAUGGCUCAUGUAGAGUGAGGAUAUGUGAGACGAACGAGAACAGAAGGCACAAGACAGG [Deportation 8 - Jieux - Exclusion NG 3] (Eterna round: R96, puzzle: Exclusion NG 3) | 106 | 92.8 | 116 | – |
| ACAUGAGGAUCACCCAUGUUUAUUGGGUACUAUACUAACAGCAAGGAUAUGCAAAUUUUUUUUACGCAGAAGGUGCAGGAACCC [JR_ExcNG3_Sub069] (Eterna round: R96, puzzle: Exclusion NG 3) | 38.3 | 33.1 | 52.8 | – |
| ACAUGAGGAUCACCCAUGUUUGGUUGGUUUUCUCCGGCUGUUGAGGAUAUAGUCCGGUAUCCGCGCUAGAAGGUGAGGGUUGGC [Aenatbe mod 8] (Eterna round: R96, puzzle: Exclusion NG 3) | 123 | 123 | 131 | – |
| ACAUGCUUAAUCUGUAUGAACAUGAGGAUCACCCAUGUAUAAGGGAAUUCUUUUGGGUUUUUUAUUGCUCGUCUUAU [JR_STOV1_Sub022] (Eterna round: R97, puzzle: Sensor, turn-off variant 1) | 379 | – | 360 | – |
| ACAUGGAAGCAGGAUAUGCUUGUUUAAUUGUUUGCAGAAGGGCUAACAUGAGGAUCACCCAUGUAAGAGGUCUA [JR_E6_Sub062] (puzzle: Exclusion 6) | – | – | – | 16.8 |
| ACAUGUAAUGCAGGAUAUGGGACACAUGAGGAUCACCCAUGUGACCAGAUGUAAUGCUAAGAGUCUCAGAAGGGUAUGUACAUG [Ex NG2 #48] (Eterna round: R96, puzzle: Exclusion NG 2) | 17.8 | 13.2 | 17.8 | – |
| ACAUGUCAUCGAGGAUAUUGCACACAUGAGGAUCACCCAUGUAUUCGGUUGCUCUUGCGUGAGUUCGAGAAGGCGAUGUACAUU [Ex NG2 #85] (Eterna round: R96, puzzle: Exclusion NG 2) | 134 | 215 | 262 | – |
| ACAUGUCAUCGAGGAUAUUGGACACAUGAGGAUCACCCAUGUACUCGGAUGCUCUACCAUGAGUUCGAGAAGGCGAUGUACAUU [Ex NG2 #78] (Eterna round: R96, puzzle: Exclusion NG 2) | 31.9 | 94.3 | 181 | – |
| ACAUGUCAUUGAGGAUAUUGCACACAUGAGGAUCACCCAUGUAUACGGUUGCUCUUGCGUGAGUUCGAGAAGGCGAUGUACAUU [Ex NG2 #87] (Eterna round: R96, puzzle: Exclusion NG 2) | 356 | 168 | 159 | – |
| ACAUGUGUUGUAGGAUAUAGGAUACAUGAGGAUCACCCAUGUGGAUUCAUGUCUAUGGAAACGUCCUAGAAGGACGACAACAUG [Ex NG2 #21] (Eterna round: R96, puzzle: Exclusion NG 2) | 120 | 56 | 90.5 | – |
| ACAUGUUAUGUAGGAUAUUUUACACAUGAGGAUCACCCAUGUAACCGGAGGCUUUACUAUGAGUAAGAGAAGGGUAUGAACAUG [Ex NG2 #64] (Eterna round: R96, puzzle: Exclusion NG 2) | 92.5 | 42.2 | 83.7 | – |
| ACAUGUUGCGCAGGAUAUGAGACACAUGAGGAUCACCCAUGUGGCUACAUGUCAUACCAAGCGUCUCAGAAGGGUGUUAACAUG [Ex NG2 #35] (Eterna round: R96, puzzle: Exclusion NG 2) | 23.5 | 20.5 | 28.4 | – |
| ACAUUCAGAGGAUAUGCGCAUAGAUAAGACUUUUUUUUUUAACAUGAGGAUCACCCAUGUAGAAGGCUGUAACA [Ex2 #49] (Eterna round: R97, puzzle: Exclusion 2) | 21.4 | – | 21.7 | – |
| ACCAGAAUAGGAUAUAACGAAAAGGACAUGAGGAUCACCCAUGUGACUACUAUUCCCUUGUUAGAAGGAUUGCGGG [Eternabot (L2) Solution 48] (Eterna round: R97, puzzle: Exclusion 5) | 32 | – | 24.9 | – |

Reference: the supplement of paper PMC9170038
